Our source for the Kd values is article PMC11986143 (Nature Communications, 2025).

[ ]: non-standard residue; d: D form.

For this experiment, the target named is integrin αvβ3 on bEnd.3 vesicles (mouse (endogenous in bEnd.3), UniProt P43406 31-1044; O54890 26-787). As to the kind of experiment: SPR. A general note: In SPR one partner is held on a chip, and binding of the other changes the refractive index at the surface.
integrin αvβ3 on bEnd.3 vesicles, sequence (P43406 31-1044, chain 1 of 2): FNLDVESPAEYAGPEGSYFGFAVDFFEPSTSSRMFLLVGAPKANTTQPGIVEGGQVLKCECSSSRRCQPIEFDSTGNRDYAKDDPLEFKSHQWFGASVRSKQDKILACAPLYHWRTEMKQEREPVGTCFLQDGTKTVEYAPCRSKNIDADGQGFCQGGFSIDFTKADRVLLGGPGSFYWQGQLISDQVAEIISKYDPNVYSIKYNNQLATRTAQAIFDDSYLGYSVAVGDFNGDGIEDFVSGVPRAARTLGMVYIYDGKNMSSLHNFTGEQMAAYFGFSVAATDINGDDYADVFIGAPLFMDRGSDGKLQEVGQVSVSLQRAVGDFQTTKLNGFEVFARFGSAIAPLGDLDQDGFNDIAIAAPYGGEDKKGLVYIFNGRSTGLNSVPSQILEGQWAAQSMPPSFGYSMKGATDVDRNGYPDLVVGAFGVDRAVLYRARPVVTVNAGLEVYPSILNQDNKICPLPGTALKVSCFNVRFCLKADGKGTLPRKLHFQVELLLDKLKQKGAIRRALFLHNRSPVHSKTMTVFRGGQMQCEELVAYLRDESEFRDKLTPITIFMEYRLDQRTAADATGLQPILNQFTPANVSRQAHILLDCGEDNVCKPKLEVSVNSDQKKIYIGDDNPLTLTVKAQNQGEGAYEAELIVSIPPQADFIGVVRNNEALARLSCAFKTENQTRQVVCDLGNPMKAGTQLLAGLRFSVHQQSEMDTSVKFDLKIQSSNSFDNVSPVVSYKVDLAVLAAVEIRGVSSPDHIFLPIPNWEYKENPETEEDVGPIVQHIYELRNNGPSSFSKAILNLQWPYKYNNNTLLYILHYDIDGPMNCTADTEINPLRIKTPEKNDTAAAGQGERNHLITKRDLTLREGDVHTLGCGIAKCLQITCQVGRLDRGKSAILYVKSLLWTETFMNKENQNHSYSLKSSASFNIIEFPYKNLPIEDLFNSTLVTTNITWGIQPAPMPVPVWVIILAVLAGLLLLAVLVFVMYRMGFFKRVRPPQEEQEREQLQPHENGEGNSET
integrin αvβ3 on bEnd.3 vesicles, sequence (O54890 26-787, chain 2 of 2): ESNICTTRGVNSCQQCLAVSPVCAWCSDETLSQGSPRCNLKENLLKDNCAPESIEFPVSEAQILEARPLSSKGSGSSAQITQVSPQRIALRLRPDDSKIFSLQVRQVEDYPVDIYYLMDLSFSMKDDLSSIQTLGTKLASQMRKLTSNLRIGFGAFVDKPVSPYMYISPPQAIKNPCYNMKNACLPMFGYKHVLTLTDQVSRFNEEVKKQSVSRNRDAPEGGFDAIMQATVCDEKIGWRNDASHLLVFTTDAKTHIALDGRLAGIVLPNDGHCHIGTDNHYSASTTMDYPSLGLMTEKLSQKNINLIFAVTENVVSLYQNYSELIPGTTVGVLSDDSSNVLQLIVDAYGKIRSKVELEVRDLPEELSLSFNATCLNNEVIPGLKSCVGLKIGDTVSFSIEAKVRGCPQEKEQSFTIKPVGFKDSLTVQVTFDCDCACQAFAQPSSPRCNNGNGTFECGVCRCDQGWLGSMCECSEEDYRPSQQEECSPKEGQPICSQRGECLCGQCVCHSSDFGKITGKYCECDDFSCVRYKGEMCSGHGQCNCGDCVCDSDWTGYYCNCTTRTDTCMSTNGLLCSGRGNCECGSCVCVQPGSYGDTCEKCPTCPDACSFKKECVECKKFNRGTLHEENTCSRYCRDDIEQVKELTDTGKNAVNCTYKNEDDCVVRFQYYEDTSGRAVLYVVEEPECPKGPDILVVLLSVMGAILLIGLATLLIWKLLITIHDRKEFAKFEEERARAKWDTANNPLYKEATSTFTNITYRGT

B1: c(RGDyK) peptide (peptide)
peptide: cyclo(RGD[dY]K)
With B1, the Kd (as a rule, a measure of binding affinity in units of concentration) was 17.1 µM.
